In patent US20250084155A1 (University of Texas, published 2025):
Residue numbers refer to the chain shown, from its start.

B1: h77A-1.2 (antibody, V domains shown)
VH: QIQLVQSGAEVKKPGASVKVSCKASGYTFTNYGMNWVRQAPGQGLEWMGWINTYTGEPRYADDFKGRFTFTTDTSTSTAYMELRSLRSDDTAVYFCARYDHAMDYWGQGTLVTVSS
VL: EIVLTQSPDSLAVSLGERATINCKSSQSLLNSGTRKNYLAWYQQKAGQSPKLLIYWTSTRESGVPDRFSGSGSGTDFTLTIDSLQAEDVAVYYCKQSYTLYTFGGGTKVEIK
notes: captured by anti-human Fc
B2: h77A-1.57 (antibody, V domains shown)
VH: B1 VH with P58A, R59T, A102V
VL: B1 VL with L30V, A86T
notes: captured by anti-human Fc
B3: h77A-1.11 (antibody, V domains shown)
VH: B1 VH with R59T
VL: B1 VL with A46P
notes: captured by anti-human Fc
B4: h77A-1.48 (antibody, V domains shown)
VH: B1 VH with R59T, E82D, A102Y
VL: B1 VL with A46P
notes: captured by anti-human Fc
B5: h77A-1.41 (antibody, V domains shown)
VH: B1 VH with R59T, S77T, A102V
VL: B1 VL with A46P
notes: captured by anti-human Fc
B6: h77A-1.70 (antibody, V domains shown)
VH: B1 VH with R59T, A61S
VL: B1 VL with A12S, Q44K, S83R, V91L
notes: captured by anti-human Fc
B7: h77A-1.7 (antibody, V domains shown)
VH: B1 VH with R59T, A102F
VL: B1 VL
notes: captured by anti-human Fc
B8: h77A-1.65 (antibody, V domains shown)
VH: B1 VH with P58A, R59T, T110S
VL: B1 VL with A46S, V91I
notes: captured by anti-human Fc
B9: h77A-1.64 (antibody, V domains shown)
VH: B1 VH with P58S, R59T
VL: B1 VL with Q44K, T80S, V91I
notes: captured by anti-human Fc
B10: h77A-1.38 (antibody, V domains shown)
VH: B1 VH with A9T, R59T, S77R, A102L
VL: B1 VL
notes: captured by anti-human Fc
B11: h77A-1.5 (antibody, V domains shown)
VH: B1 VH with R59T
VL: B1 VL with T99N
notes: captured by anti-human Fc
B12: h77A-1.45 (antibody, V domains shown)
VH: B1 VH with A9V, R59T, A79V
VL: B1 VL with T99S
notes: captured by anti-human Fc
B13: h77A-1.25 (antibody, V domains shown)
VH: B1 VH with R59T, A102F
VL: B1 VL with V91I
notes: captured by anti-human Fc
B14: h77A-1.50 (antibody, V domains shown)
VH: B1 VH with Q3H, A9V, R59T, A61T
VL: B1 VL with V91I
notes: captured by anti-human Fc
B15: h77A-1.53 (antibody, V domains shown)
VH: B1 VH with R59K, A61T, S77R
VL: B1 VL with A12S
notes: captured by anti-human Fc
B16: h77A-1.24 (antibody, V domains shown)
VH: B1 VH with R59T, A102R
VL: B1 VL with A40T
notes: captured by anti-human Fc
B17: h77A-1.36 (antibody, V domains shown)
VH: B1 VH with R59T, S77T, A102H
VL: B1 VL with L30F
notes: captured by anti-human Fc
B18: h77A-1.31 (antibody, V domains shown)
VH: B1 VH with R59T, A102P
VL: B1 VL with S83R
notes: captured by anti-human Fc
B19: h77A-1.62 (antibody, V domains shown)
VH: B1 VH with R59T, S77T, A79G
VL: B1 VL with N22K, G70A
notes: captured by anti-human Fc
B20: h77A-1.35 (antibody, V domains shown)
VH: B1 VH with A9T, R59T, A102H
VL: B1 VL with A12T
notes: captured by anti-human Fc
B21: h77A-1.23 (antibody, V domains shown)
VH: B1 VH with R59T
VL: B1 VL with A40S, T99S
notes: captured by anti-human Fc
B22: h77A-1.42 (antibody, V domains shown)
VH: B1 VH with Q3H, R59T, A97T, A102R
VL: B1 VL
notes: captured by anti-human Fc
B23: h77A-1.28 (antibody, V domains shown)
VH: B1 VH with A9T, R59T, A102T
VL: B1 VL
notes: captured by anti-human Fc
B24: h77A-1.47 (antibody, V domains shown)
VH: B1 VH with A9T, R59T, A102L
VL: B1 VL with A86T
notes: captured by anti-human Fc
B25: h77A-1.29 (antibody, V domains shown)
VH: B1 VH with R59T, A102F
VL: B1 VL with L30F
notes: captured by anti-human Fc
B26: h77A-1.54 (antibody, V domains shown)
VH: B1 VH with N31K, R59K, A61G, A102R
VL: B1 VL
notes: captured by anti-human Fc
B27: h77A-1.3 (antibody, V domains shown)
VH: B1 VH with R59T, A102R
VL: B1 VL
notes: captured by anti-human Fc
B28: h77A-1.20 (antibody, V domains shown)
VH: B1 VH with A9D, R59T, A61S
VL: B1 VL
notes: captured by anti-human Fc
B29: h77A-1.66 (antibody, V domains shown)
VH: B1 VH with T28I, P58S, R59T, A79V
VL: B1 VL with N22K
notes: captured by anti-human Fc
B30: h77A-1.13 (antibody, V domains shown)
VH: B1 VH with R59T, A102P
VL: B1 VL
notes: captured by anti-human Fc
B31: h77A-1.76 (antibody, V domains shown)
VH: B1 VH with A9V, P58T, R59T, L83V
VL: B1 VL with L30F, T80S
notes: captured by anti-human Fc
B32: h77A-1.21 (antibody, V domains shown)
VH: B1 VH with A9D, R59T
VL: B1 VL with T80S
notes: captured by anti-human Fc
B33: h77A-1.39 (antibody, V domains shown)
VH: B1 VH with R59T, A61S, S77R
VL: B1 VL with T99N
notes: captured by anti-human Fc
B34: h77A-1.9 (antibody, V domains shown)
VH: B1 VH with R59T, A102T
VL: B1 VL
notes: captured by anti-human Fc
B35: h77A-1.55 (antibody, V domains shown)
VH: B1 VH with A9S, R59T, A61G, A102F
VL: B1 VL with A12S
notes: captured by anti-human Fc
B36: h77A-1.40 (antibody, V domains shown)
VH: B1 VH with R59T, A102Y
VL: B1 VL with A12T, T99N
notes: captured by anti-human Fc
B37: h77A-1.43 (antibody, V domains shown)
VH: B1 VH with Q3H, R59T, A79V
VL: B1 VL with L53I
notes: captured by anti-human Fc
B38: h77A-1.33 (antibody, V domains shown)
VH: B1 VH with N31K, R59T, A102N
VL: B1 VL
notes: captured by anti-human Fc
B39: h77A-1.4 (antibody, V domains shown)
VH: B1 VH with R59I
VL: B1 VL
notes: captured by anti-human Fc
B40: h77A-1.26 (antibody, V domains shown)
VH: B1 VH with R59T, S77R, A97T
VL: B1 VL
notes: captured by anti-human Fc
B41: h77A-1.15 (antibody, V domains shown)
VH: B1 VH with R59T, A102V
VL: B1 VL
notes: captured by anti-human Fc
B42: h77A-1.72 (antibody, V domains shown)
VH: B1 VH with A9P, T28I, P58T, R59T, S77T, A79V
VL: B1 VL
notes: captured by anti-human Fc
B43: h77A-1.63 (antibody, V domains shown)
VH: B1 VH with R59T, T110S
VL: B1 VL with A40T, A46S, V91I
notes: captured by anti-human Fc
B44: h77A-1.52 (antibody, V domains shown)
VH: B1 VH with A9V, T28I, A102R
VL: B1 VL
notes: captured by anti-human Fc
B45: h77A-1.77 (antibody, V domains shown)
VH: B1 VH with A9P, T28I, R59T, A61G, A97G
VL: B1 VL with S83R
notes: captured by anti-human Fc
B46: h77A-1.37 (antibody, V domains shown)
VH: B1 VH with N31K, P58S, R59T, A102V
VL: B1 VL
notes: captured by anti-human Fc

Target: T1, HSP70 (human HSP70; the antigen of the binning, humanization and variant binding assays) (human, UniProt P0DMV8 1-641, limits assumed)
T1 construct: also called hu HSP70
Experiment: BLI, anti-human Fc capture, antigen 100 nM
Experimental: Binding assays were performed as follows. Antibody variants were immobilized using anti-human Fc onto the surface of a series of biosensors at […]. Antigen, at 100 nM, was passed over the surface to generate a binding response. Binding data for the antibody:antigen interactions were collected at 25° C. on the biosensors. In Table 14, X=610 represents captured antigen value (nM) at the beginning of the dissociation phase (measured at 610 seconds after the biosensor was initially contacted with antigen) and X=1495 represents captured antigen value (nM) at the end of the dissociation phase (measured at 1495 seconds after the biosensor was initially contacted with antigen). In Table 14, antibodies with an X=610 value greater than 0.2 and a % dissociation less than 10% are shown in bold.

T1 sequence (P0DMV8 whole entry, change not shown): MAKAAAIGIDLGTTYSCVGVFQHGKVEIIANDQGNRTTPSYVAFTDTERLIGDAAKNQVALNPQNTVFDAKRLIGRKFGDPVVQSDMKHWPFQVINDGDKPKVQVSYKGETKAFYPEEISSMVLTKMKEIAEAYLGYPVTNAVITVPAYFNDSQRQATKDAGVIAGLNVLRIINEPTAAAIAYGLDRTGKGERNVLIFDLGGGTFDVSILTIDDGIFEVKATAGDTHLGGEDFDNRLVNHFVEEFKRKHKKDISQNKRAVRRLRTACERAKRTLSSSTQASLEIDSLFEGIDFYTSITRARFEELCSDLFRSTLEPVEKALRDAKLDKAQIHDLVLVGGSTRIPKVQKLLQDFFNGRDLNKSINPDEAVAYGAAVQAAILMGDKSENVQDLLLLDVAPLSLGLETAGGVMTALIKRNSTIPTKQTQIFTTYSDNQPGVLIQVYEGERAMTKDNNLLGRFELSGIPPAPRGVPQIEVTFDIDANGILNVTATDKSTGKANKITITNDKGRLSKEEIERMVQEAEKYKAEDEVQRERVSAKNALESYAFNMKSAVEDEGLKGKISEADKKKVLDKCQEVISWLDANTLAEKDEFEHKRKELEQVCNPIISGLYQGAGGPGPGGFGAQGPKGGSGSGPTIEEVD

% Diss | Binder
-1.81% | B1
25.9% | B2
10.7% | B3
34.5% | B4
34.2% | B5
11.6% | B6
30.2% | B7
20.5% | B8
21% | B9
10.5% | B10
25.3% | B11
33.9% | B12
23.2% | B13
11.2% | B14
11.1% | B15
33.6% | B16
6.96% | B17
-3.52% | B18
12.3% | B19
4.38% | B20
24% | B21
33.5% | B22
18.8% | B23

% Diss | Binder
13.6% | B24
28.3% | B25
-41.2% | B26
28.7% | B27
12.1% | B28
32.1% | B29
13.4% | B30
12.1% | B31
10% | B32
21% | B33
18.3% | B34
26.7% | B35
11.9% | B36
21.1% | B37
20.6% | B38
31.8% | B39
11.8% | B40
33% | B41
31.5% | B42
14.2% | B43
-115% | B44
32.5% | B45
22.8% | B46
